# Data taken from US20140179593A1 (published 2014).
# Starred links: 1 amine or outer side, 2 acyl side, 3 side chain; linkers in the order of their positions; H or OH if unused. Positions of bridges follow the written chain, without caps; N, C: chain ends. Non-standard residues stand in square brackets, D forms with d. αMeNva(5-ylidene) = C[C@@](CCC=[*:3])(N[*:1])C(=O)[*:2]; S8 = C=CCCCCCC[C@](C)(N)C(=O)O; SeMet = C[Se]CC[C@H](N)C(=O)O; S5 = C=CCCC[C@](C)(N)C(=O)O; Nle = CCCC[C@H](N)C(=O)O
# T1: hE1 for Nedd8 (APPBP1-UBA3, NAE1-UBA3) (Homo sapiens, UniProt Q13564 18-534; Q8TBC4 22-463, limits assumed)
# T1 construct: Heterodimeric E1 expressed in E. coli as described in earlier publications
# T1 sequence 1: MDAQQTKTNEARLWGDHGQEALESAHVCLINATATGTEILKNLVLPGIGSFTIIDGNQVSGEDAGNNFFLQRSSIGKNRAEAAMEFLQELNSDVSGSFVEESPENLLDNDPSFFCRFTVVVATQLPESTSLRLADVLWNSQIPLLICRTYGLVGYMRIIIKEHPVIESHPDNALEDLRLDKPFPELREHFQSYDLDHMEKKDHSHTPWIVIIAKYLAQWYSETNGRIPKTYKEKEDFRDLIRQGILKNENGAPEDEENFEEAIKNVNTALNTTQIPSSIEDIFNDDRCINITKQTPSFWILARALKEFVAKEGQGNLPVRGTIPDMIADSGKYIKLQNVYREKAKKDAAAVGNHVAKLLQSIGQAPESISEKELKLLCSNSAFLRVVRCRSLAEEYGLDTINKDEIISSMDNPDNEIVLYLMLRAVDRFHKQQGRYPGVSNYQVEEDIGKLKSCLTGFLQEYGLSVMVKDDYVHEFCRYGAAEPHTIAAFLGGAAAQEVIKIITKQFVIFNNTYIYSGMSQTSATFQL
# T1 sequence 2: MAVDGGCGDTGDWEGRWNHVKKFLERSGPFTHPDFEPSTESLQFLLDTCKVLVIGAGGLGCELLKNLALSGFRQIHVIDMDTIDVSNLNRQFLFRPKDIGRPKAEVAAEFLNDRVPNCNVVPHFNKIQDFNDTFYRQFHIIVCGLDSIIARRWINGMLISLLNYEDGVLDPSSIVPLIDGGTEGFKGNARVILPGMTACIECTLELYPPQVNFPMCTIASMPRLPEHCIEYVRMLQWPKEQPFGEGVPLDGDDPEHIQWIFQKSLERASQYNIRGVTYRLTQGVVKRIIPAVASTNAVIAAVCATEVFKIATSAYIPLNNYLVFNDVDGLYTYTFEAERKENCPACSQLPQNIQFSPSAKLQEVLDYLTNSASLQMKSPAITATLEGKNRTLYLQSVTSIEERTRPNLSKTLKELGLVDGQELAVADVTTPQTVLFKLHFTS
# T2: yE1 for yNedd8 (Ula1-Uba3) (Saccharomyces cerevisiae, UniProt Q12059 1-462, limits assumed)
# T2 construct: Heterodimeric E1 expressed in E. coli as described in earlier publications
# T2 sequence 1: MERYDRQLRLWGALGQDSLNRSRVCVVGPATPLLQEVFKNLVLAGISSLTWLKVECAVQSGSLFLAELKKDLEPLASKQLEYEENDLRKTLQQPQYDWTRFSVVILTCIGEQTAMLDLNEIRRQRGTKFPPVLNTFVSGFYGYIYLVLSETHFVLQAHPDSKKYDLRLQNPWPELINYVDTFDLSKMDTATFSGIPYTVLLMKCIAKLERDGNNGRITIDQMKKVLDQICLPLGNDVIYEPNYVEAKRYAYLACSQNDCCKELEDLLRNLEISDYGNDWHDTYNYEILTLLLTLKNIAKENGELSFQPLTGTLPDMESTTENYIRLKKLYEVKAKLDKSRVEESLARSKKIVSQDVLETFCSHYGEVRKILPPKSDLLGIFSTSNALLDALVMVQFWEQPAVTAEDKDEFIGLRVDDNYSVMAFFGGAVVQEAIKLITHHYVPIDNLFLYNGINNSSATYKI
# T2 sequence 2: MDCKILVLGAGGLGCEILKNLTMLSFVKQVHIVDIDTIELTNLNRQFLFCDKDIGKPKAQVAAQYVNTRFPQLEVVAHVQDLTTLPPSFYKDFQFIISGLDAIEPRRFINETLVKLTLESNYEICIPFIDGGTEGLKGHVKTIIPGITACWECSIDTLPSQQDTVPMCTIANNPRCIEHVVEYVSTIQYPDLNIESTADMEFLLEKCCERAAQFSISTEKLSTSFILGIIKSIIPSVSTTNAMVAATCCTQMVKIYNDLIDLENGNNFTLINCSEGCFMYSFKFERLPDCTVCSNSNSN
# T3: yDcn1^P (potentiating neddylation / PONY domain of Saccharomyces cerevisiae Dcn1) (Saccharomyces cerevisiae, UniProt Q12395 70-269)
# T3 construct: NEDD8 co-E3; Expressed in E. coli
# T3 sequence: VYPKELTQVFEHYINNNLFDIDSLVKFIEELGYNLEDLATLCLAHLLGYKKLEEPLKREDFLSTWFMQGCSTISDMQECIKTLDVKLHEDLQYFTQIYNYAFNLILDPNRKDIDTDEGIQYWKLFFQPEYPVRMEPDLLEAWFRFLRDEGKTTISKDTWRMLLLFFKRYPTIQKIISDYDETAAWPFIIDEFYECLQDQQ
# T4: hDcn3^P (PONY domain of human DCUN1D3) (Homo sapiens, UniProt Q8IWE4 86-304)
# T4 sequence: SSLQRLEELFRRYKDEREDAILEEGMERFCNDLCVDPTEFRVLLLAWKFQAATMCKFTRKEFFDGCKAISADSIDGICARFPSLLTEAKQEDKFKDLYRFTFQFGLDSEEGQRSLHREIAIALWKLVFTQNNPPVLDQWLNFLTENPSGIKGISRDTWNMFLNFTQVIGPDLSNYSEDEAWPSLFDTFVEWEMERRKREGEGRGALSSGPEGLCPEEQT
# T5: hDcn5^P (PONY domain of human DCUN1D5) (Homo sapiens, UniProt Q9BTE7 47-237)
# T5 sequence: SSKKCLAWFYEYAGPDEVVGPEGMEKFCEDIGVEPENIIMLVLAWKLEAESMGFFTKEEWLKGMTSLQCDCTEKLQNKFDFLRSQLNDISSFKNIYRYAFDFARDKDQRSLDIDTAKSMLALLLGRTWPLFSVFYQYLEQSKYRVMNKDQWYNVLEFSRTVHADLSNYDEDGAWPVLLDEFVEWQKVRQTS
# Legend:
# [1] = target: T6, hDcn1^P (potentiating neddylation / PONY domain of human Dcn1, DCUN1D1) (Homo sapiens, UniProt Q96GG9 62-259); assay: ITC, two-site fit, first value
# T6 construct: also called DCUN1D1^P; SCCRO PONY domain
# T6 sequence (Q96GG9 62-259): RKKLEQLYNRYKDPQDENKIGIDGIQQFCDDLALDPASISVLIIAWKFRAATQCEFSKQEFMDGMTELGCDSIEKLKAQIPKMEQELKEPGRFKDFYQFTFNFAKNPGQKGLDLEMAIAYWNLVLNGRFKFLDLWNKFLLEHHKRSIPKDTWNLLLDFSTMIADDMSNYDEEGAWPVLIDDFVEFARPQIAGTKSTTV
# Procedure: (§1) Protein samples were buffer matched by desalting over a NAP-5 column (GE Healthcare) into 50 mM Hepes, 125 mM NaCl, 1 mM BME, pH 7.0 (ITC buffer). Peptides were dissolved by weight to a final concentration of 10 mM in ITC buffer and diluted further in ITC buffer as required for the experiments. […] The peptide ligands (4 mM) were constantly injected (1.5 μl). The interval time between each injection was 3 minutes and the duration of each injection was 3 seconds. […] Peptide ligands (250 μM) were constantly injected (2.5 μl). The interval time between each injection was three minutes and the duration of each injection was 5 seconds. […] The interval time between each injection was 3 minutes and the duration of each injection was 5 seconds. Obtained spectra were evaluated using Origin (V 7.0) to determine heats of binding and Kd values.
# [2] = target: T6, hDcn1^P (potentiating neddylation / …); assay: ITC, two-site fit, second value
# Procedure: as §1
# [3] = target: T1, hE1 for Nedd8 (APPBP1-UBA3, NAE1-UBA3); assay: ITC, peptide titrated into hE1
# Procedure: (§2) To gain insights into mechanistic roles of Ubc12 N-terminal acetylation, isothermal titration calorimetry (ITC) was used to quantify interactions with peptides corresponding to the N-termini of yeast or human Ubc12.
# as §1
# [4] = target: T7, hDcn1^P (PONY domain of human Dcn1 / DCUN1D1 / SCCRO, residues 62 to 259) (Homo sapiens, UniProt Q96GG9 62-259); assay: ITC, peptide titrated into hDcn1^P
# T7 construct: NEDD8 co-E3; Expressed as a GST fusion in E. coli; GST was removed with TEV protease; also called DCUN1D1^P
# T7 sequence (Q96GG9 62-259): as above
# Procedure: as §2, §1
# [5] = target: T2, yE1 for yNedd8 (Ula1-Uba3); assay: ITC, peptide titrated into yE1
# Procedure: as §2, §1
# [6] = target: T3, yDcn1^P (potentiating neddylation / …); assay: ITC, peptide titrated into yDcn1^P
# Procedure: as §2, §1
# [7] = target: T6, hDcn1^P (potentiating neddylation / …); assay: ITC, peptide titrated into Dcn PONY domain
# Procedure: as §1
# [8] = target: T4, hDcn3^P (PONY domain of human DCUN1D3); assay: ITC, peptide titrated into Dcn PONY domain
# Procedure: as §1
# [9] = target: T5, hDcn5^P (PONY domain of human DCUN1D5); assay: ITC, peptide titrated into Dcn PONY domain
# Procedure: as §1
# [10] = target: hDcn2^P (PONY domain of human DCUN1D2) (Homo sapiens, UniProt Q6PH85 62-259); assay: ITC, peptide titrated into Dcn PONY domain
# Chain of hDcn2^P (PONY domain of human DCUN1D2) (Q6PH85 62-259 limits assumed): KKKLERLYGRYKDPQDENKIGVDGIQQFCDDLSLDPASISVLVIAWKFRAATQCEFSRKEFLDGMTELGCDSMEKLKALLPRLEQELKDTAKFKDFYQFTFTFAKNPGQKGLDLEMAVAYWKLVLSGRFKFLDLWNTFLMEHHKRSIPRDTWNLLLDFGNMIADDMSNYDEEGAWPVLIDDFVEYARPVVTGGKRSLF
# Procedure: as §1
binder,measurement,setting,value
"Ac-[Nle]IKLF[S5]LKQ[S5]KK-NH2 (staple 6-10; SMILES CCCC[C@H](NC(C)=O)C(=O)N[C@H](C(=O)N[C@@H](CCCCN)C(=O)N[C@@H](CC(C)C)C(=O)N[C@@H](Cc1ccccc1)C(=O)N[C@@]1(C)CCCC=CCCC[C@@](C)(C(=O)N[C@@H](CCCCN)C(=O)N[C@@H](CCCCN)C(N)=O)NC(=O)[C@H](CCC(N)=O)NC(=O)[C@H](CCCCN)NC(=O)[C@H](CC(C)C)NC1=O)[C@@H](C)CC, Stapled synthetic peptide) [hUbc12^Ac1-12 (NorLeu) 6, 10]",Kd,[1],800 nM
same,Kd,[2],1200 nM
Ac-MIKLFSLKQQKKEEESAGGTKGSSKK-NH2 (Synthetic peptide; also called hUbc12^Ac1-26) [Acetyl-hUbc12^1-26 peptide],Kd,[3],943 nM
same,N (stoichiometry),[3],1.14
same,ΔH,[3],-9.43 kcal/mol
same,ΔS,[3],-4.79 cal/mol/deg
same,Kd,[4],1110 nM
same,ΔH,[4],-6.11 kcal/mol
same,ΔS,[4],5.84 cal/mol/deg
Ac-LKLRQLQKKKQKENENSSSIQPN-NH2 (Synthetic peptide lacking Met1) [Acetyl-yUbc12^2-24 peptide],Kd,[5],1580 nM
same,N (stoichiometry),[5],0.92
same,ΔH,[5],-9.62 kcal/mol
same,ΔS,[5],-7.21 cal/mol/deg
same,ΔH,[6],3.76 kcal/mol
same,ΔS,[6],33.4 cal/mol/deg
"Ac-MIKLF[αMeNva(5-ylidene)]LKQ[S8]KK-NH2 (staple 6-10) [hUbc12^Ac1-12 (Met) But:Oct 6, 10]",Kd,[7],120 nM
same,Kd,[8],1520 nM
same,Kd,[9],781 nM
"Ac-[Nle]LKL[S5]QLQ[S5]KKQ-NH2 (staple 5-9; SMILES CCCC[C@H](NC(C)=O)C(=O)N[C@@H](CC(C)C)C(=O)N[C@@H](CCCCN)C(=O)N[C@@H](CC(C)C)C(=O)N[C@@]1(C)CCCC=CCCC[C@@](C)(C(=O)N[C@@H](CCCCN)C(=O)N[C@@H](CCCCN)C(=O)N[C@@H](CCC(N)=O)C(N)=O)NC(=O)[C@H](CCC(N)=O)NC(=O)[C@H](CC(C)C)NC(=O)[C@H](CCC(N)=O)NC1=O, Stapled synthetic peptide) [yUbc12^Ac1-12 (NorLeu) 5, 9]",Kd,[7],418 nM
same,Kd,[10],515 nM
Ac-MLKLRQLQKKKQKENENSSSIQPN-NH2 (Synthetic peptide; also called yUbc12^Ac1-24) [Acetyl-yUbc12^1-24 peptide],Kd,[5],16 nM
same,N (stoichiometry),[5],0.99
same,ΔH,[5],-11.3 kcal/mol
same,ΔS,[5],-3.8 cal/mol/deg
same,Kd,[6],444 nM
same,ΔH,[6],4.15 kcal/mol
same,ΔS,[6],43.6 cal/mol/deg
"Ac-[SeMet]IKLF[S5]LKQ[S5]KK-NH2 (staple 6-10, Stapled synthetic peptide) [hUbc12^Ac1-12 (SeMet) 6, 10]",Kd,[1],0.93 nM
same,Kd,[2],361 nM
"Ac-MIKLF[S5]LKQ[S5]KK-NH2 (staple 6-10, Stapled synthetic peptide; 'SS' is not explained in the text) [hUbc12^Ac1-12 (Met) SS 6, 10]",Kd,[1],1.8 nM
same,Kd,[2],187 nM
Ac-IKLFSLKQQKKEEESAGGTKGSSKK-NH2 (Synthetic peptide lacking Met1; also called hUbc12^Ac-2-26) [Acetyl-hUbc12^2-26 peptide],Kd,[3],390 nM
same,N (stoichiometry),[3],1.04
same,ΔH,[3],-8.9 kcal/mol
same,ΔS,[3],-1.24 cal/mol/deg
same,ΔH,[4],1.72 kcal/mol
same,ΔS,[4],24.1 cal/mol/deg
"Ac-MIKLF[(R)‑2‑(4-pentenyl)alanine]LKQ[(R)‑2‑(4-pentenyl)alanine]KK-NH2 (staple 6-10, Stapled synthetic peptide; 'RR' is not explained in the text) [hUbc12^Ac1-12 (Met) RR 6, 10]",Kd,[1],340 nM
"Ac-MLKLR[S5]LQK[S5]KQ-NH2 (staple 6-10; SMILES CSCC[C@H](NC(C)=O)C(=O)N[C@@H](CC(C)C)C(=O)N[C@@H](CCCCN)C(=O)N[C@@H](CC(C)C)C(=O)N[C@@H](CCCNC(=N)N)C(=O)N[C@@]1(C)CCCC=CCCC[C@@](C)(C(=O)N[C@@H](CCCCN)C(=O)N[C@@H](CCC(N)=O)C(N)=O)NC(=O)[C@H](CCCCN)NC(=O)[C@H](CCC(N)=O)NC(=O)[C@H](CC(C)C)NC1=O, Stapled synthetic peptide; also called Acetyl-yUbc12^1-12(6:10 Staple)) [yUbc12^Ac1-12 (Met) 6, 10]",Kd,[1],38 nM
same,Kd,[2],37 nM
